Values belong to the binder of their own block, whether it stands above or below them.
Columns and labels:
Details in all cases: both partners purified
[1] = molecular target: T1, Pol1 (budding yeast Pol α catalytic subunit) (S. cerevisiae, UniProt P13382 1-1468); assay: cryo-EM structure; budding yeast replisome: 150 nM CMG on fork DNA (39 nt 3′ flap, 60 nt 5′ flap) with 1.5-fold molar excess of Tof1-Csm3, Mrc1 and Pol α-primase; 25 mM HEPES-NaOH pH 7.6, 150 mM NaOAc, 0.5 mM TCEP, 500 μM AMP-PNP, 10 mM Mg(OAc)2, on ice; 10-30% glycerol gradient with glutaraldehyde and BS3 cross-linkers
T1 construct: Pol1, S. cerevisiae; modelled: CTD 1271-1468 and CIP box F140-S149; stood in the assay as a subunit of m1; also called Pol1CTD; Pol1CIP; source: subunit of Pol α-primase from S. cerevisiae strain yAE95, purified as described previously
T1 sequence: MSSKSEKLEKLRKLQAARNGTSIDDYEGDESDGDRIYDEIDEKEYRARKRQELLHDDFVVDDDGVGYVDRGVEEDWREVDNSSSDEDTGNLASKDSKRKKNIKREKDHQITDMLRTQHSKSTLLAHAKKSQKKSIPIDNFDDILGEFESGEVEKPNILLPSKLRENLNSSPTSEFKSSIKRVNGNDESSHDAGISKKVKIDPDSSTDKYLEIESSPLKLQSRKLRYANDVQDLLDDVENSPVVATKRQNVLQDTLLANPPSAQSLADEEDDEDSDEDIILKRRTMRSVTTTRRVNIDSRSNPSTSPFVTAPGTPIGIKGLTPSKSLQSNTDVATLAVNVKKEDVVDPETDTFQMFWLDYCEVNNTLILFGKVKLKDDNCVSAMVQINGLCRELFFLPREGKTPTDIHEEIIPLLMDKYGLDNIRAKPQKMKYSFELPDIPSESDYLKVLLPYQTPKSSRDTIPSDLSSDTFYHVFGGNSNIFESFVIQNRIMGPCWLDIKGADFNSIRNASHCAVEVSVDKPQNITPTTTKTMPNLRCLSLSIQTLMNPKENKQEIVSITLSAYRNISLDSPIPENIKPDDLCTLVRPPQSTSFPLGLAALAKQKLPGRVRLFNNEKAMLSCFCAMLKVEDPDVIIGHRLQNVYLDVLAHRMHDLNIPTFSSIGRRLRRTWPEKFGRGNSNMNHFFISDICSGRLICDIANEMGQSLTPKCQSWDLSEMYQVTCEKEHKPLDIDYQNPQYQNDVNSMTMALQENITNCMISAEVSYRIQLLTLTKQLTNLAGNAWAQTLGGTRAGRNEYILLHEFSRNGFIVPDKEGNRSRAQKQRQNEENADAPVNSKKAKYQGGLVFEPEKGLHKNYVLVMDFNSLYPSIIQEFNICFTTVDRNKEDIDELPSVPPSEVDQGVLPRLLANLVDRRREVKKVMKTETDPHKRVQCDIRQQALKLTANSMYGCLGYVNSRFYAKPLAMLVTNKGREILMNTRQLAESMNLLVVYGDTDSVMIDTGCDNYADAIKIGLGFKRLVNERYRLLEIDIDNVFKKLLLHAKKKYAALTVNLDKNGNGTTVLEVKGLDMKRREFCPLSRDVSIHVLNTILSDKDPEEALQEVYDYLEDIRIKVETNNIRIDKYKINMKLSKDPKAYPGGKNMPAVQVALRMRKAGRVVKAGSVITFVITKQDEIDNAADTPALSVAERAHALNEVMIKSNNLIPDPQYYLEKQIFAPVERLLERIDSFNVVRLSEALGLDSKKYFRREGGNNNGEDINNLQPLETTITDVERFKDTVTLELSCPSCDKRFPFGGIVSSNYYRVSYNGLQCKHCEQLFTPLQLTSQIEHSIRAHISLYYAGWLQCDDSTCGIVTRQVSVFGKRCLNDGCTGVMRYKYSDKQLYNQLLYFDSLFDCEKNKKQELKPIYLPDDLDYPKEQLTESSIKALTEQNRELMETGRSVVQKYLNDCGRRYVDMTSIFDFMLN

[2] = molecular target: T2, Mcm3 (budding yeast) (S. cerevisiae, UniProt P24279 1-971); assay: as above
T2 construct: Mcm3, S. cerevisiae; stood in the assay as a subunit of m2; source: subunit of CMG from S. cerevisiae strain yJY197, purified as described previously
T2 sequence (P24279 whole entry): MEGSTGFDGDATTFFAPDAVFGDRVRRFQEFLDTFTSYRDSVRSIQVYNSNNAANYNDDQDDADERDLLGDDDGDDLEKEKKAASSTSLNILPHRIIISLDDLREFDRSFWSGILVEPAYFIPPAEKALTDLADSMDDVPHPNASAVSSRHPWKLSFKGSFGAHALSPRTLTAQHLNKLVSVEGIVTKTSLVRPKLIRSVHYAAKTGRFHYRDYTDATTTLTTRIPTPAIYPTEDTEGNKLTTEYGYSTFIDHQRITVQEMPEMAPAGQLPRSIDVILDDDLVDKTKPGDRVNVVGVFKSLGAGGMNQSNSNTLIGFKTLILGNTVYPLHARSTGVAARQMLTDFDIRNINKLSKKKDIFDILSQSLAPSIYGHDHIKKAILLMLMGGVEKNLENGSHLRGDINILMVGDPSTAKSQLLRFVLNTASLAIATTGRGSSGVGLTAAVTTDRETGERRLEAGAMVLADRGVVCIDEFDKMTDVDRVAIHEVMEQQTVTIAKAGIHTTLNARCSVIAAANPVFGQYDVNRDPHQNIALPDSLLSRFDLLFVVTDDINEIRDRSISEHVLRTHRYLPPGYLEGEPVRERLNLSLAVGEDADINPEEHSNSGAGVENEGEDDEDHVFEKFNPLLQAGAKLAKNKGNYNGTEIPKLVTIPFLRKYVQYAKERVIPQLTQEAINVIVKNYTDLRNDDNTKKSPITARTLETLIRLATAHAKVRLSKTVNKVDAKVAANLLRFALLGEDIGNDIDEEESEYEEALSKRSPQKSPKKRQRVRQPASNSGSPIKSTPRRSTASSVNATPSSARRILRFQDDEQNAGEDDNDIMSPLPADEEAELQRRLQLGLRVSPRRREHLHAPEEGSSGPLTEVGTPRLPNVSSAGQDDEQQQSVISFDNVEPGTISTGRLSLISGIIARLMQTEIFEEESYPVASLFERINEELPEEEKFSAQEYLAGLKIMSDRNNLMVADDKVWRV

[3] = molecular target: T3, Mcm5 (budding yeast) (S. cerevisiae, UniProt P29496 1-775); assay: as above
T3 construct: Mcm5, S. cerevisiae; stood in the assay as a subunit of m2; also called Mcm5ZnF; source: subunit of CMG from S. cerevisiae strain yJY197, purified as described previously
T3 sequence: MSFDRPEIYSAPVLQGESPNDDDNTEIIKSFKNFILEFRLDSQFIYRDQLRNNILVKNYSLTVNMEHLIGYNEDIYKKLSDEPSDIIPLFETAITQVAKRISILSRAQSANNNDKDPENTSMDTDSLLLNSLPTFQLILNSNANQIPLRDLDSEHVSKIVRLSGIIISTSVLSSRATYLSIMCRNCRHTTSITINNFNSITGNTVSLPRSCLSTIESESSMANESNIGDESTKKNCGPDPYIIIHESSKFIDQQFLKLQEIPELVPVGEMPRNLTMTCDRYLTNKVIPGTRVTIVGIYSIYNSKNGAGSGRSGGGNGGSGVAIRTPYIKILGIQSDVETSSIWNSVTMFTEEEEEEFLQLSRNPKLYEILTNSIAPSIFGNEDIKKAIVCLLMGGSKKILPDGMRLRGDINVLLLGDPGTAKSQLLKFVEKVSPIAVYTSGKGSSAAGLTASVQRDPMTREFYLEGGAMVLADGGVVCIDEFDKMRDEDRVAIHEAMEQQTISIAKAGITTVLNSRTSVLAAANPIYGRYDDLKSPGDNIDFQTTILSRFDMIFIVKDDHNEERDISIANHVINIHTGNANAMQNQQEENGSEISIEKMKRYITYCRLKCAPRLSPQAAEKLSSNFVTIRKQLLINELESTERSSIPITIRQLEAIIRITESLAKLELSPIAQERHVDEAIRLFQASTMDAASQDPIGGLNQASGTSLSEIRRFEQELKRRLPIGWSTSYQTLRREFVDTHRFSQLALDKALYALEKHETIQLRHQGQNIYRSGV

[4] = molecular target: T4, MCM3 (human) (human, UniProt P25205 1-808); assay: cryo-EM structure; human replisome: 150 nM CMG on fork DNA (60 nt or 15 nt 5′ flap) with 1.5-fold molar excess of AND-1, TIMELESS-TIPIN, CLASPIN and Pol α-primase; 25 mM HEPES-NaOH pH 7.6, 150 mM NaOAc, 0.5 mM TCEP, 500 μM AMP-PNP, 10 mM Mg(OAc)2, on ice; 10-30% glycerol gradient with glutaraldehyde and BS3 cross-linkers
T4 construct: MCM3, human; stood in the assay as a subunit of m19
T4 sequence: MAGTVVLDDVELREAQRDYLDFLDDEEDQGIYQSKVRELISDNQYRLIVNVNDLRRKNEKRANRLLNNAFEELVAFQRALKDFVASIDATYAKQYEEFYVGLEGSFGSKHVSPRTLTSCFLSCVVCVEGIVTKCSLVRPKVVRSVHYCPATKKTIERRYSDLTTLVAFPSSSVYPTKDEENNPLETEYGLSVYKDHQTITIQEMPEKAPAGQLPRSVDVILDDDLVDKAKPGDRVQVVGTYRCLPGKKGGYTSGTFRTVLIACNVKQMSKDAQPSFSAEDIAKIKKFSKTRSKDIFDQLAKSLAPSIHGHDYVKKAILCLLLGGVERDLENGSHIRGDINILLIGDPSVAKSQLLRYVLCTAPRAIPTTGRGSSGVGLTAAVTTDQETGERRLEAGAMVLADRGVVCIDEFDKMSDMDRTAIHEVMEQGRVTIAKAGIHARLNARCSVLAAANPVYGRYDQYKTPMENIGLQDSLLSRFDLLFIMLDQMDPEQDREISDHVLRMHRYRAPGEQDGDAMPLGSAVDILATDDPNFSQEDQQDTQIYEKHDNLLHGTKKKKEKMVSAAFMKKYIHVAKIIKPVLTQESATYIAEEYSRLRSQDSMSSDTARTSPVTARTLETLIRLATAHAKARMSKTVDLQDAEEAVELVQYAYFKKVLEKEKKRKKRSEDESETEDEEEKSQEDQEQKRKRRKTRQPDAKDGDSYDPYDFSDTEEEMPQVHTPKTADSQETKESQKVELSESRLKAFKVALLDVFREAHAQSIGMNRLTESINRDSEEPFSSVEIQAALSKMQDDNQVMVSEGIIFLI

[5] = molecular target: T5, POLA2 (human Pol α accessory subunit) (human, UniProt Q14181 1-598); assay: as above
T5 construct: POLA2, human; stood in the assay as a subunit of m18
T5 sequence: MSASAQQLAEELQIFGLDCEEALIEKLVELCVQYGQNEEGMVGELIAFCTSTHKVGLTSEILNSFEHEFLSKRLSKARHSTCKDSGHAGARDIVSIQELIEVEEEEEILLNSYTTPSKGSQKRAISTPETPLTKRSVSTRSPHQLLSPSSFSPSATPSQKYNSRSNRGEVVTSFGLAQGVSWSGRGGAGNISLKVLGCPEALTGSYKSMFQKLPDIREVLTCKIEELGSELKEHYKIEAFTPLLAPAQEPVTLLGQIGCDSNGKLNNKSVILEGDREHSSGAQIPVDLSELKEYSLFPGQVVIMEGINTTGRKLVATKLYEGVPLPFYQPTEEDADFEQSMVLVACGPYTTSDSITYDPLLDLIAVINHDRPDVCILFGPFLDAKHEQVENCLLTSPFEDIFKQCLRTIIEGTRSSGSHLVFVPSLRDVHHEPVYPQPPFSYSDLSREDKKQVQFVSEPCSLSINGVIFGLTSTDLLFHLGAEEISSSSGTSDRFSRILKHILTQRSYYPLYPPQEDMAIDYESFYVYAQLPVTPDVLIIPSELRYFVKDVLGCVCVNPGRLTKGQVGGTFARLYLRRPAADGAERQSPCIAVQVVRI

binding result [1]: binds | binding result [2]: binds | binding result [3]: binds
B1: Pri2 (budding yeast primase accessory subunit) (natural protein, S. cerevisiae)
chain: MFRQSKRRIASRKNFSSYDDIVKSELDVGNTNAANQIILSSSSSEEEKKLYARLYESKLSFYDLPPQGEITLEQFEIWAIDRLKILLEIESCLSRNKSIKEIETIIKPQFQKLLPFNTESLEDRKKDYYSHFILRLCFCRSKELREKFVRAETFLFKIRFNMLTSTDQTKFVQSLDLPLLQFISNEEKAELSHQLYQTVSASLQFQLNLNEEHQRKQYFQQEKFIKLPFENVIELVGNRLVFLKDGYAYLPQFQQLNLLSNEFASKLNQELIKTYQYLPRLNEDDRLLPILNHLSSGYTIADFNQQKANQFSENVDDEINAQSVWSEEISSNYPLCIKNLMEGLKKNHHLRYYGRQQLSLFLKGIGLSADEALKFWSEAFTRNGNMTMEKFNKEYRYSFRHNYGLEGNRINYKPWDCHTILSKPRPGRGDYHGCPFRDWSHERLSAELRSMKLTQAQIISVLDSCQKGEYTIACTKVFEMTHNSASADLEIGEQTHIAHPNLYFERSRQLQKKQQKLEKEKLFNNGNH
notes: Pri2, S. cerevisiae; modelled residues 1-5 (N terminus), 44-177 and 181-299 (NTD); stood in the assay as a subunit of m1; also called Pri2NTD; Pri2_(Nterm); source: subunit of Pol α-primase from S. cerevisiae strain yAE95, purified as described previously

binding result [4]: binds
B2: PRIM2 (human primase accessory subunit) (natural protein)
chain: MEFSGRKWRKLRLAGDQRNASYPHCLQFYLQPPSENISLIEFENLAIDRVKLLKSVENLGVSYVKGTEQYQSKLESELRKLKFSYRENLEDEYEPRRRDHISHFILRLAYCQSEELRRWFIQQEMDLLRFRFSILPKDKIQDFLKDSQLQFEAISDEEKTLREQEIVASSPSLSGLKLGFESIYKIPFADALDLFRGRKVYLEDGFAYVPLKDIVAIILNEFRAKLSKALALTARSLPAVQSDERLQPLLNHLSHSYTGQDYSTQGNVGKISLDQIDLLSTKSFPPCMRQLHKALRENHHLRHGGRMQYGLFLKGIGLTLEQALQFWKQEFIKGKMDPDKFDKGYSYNIRHSFGKEGKRTDYTPFSCLKIILSNPPSQGDYHGCPFRHSDPELLKQKLQSYKISPGGISQILDLVKGTHYQVACQKYFEMIHNVDDCGFSLNHPNQFFCESQRILNGGKDIKKEPIQPETPQPKPSVQKTKDASSALASLNSSLEMDMEGLEDYFSEDS
notes: PRIM2, human; modelled residues 1-5 (N terminus) and 17-252 (NTD); stood in the assay as a subunit of m18; also called PRIM2NTD; PRIM2_(Nterm)

binding result [5]: binds
B3: PSF1 (human GINS subunit) (natural protein)
chain: MFCEKAMELIRELHRAPEGQLPAFNEDGLRQVLEEMKALYEQNQSDVNEAKSGGRSDLIPTIKFRHCSLLRNRRCTVAYLYDRLLRIRALRWEYGSVLPNALRFHMAAEEMEWFNNYKRSLATYMRSLGGDEGLDITQDMKPPKSLYIEVRCLKDYGEFEVDDGTSVLLKKNSQHFLPRWKCEQLIRQGVLEHILS
notes: PSF1, subunit of GINS, human; stood in the assay as a subunit of m19
